Experimental data as given in the supplement of paper PMC10567573.
± gives the standard deviation.

Experiment: protein stability index of a GFP-peptide fusion (GPS, HEK-293T) (PSI 1-6); higher = more stable
[1] = treatment: DMSO, c terminus: a fixed tail appended
[2] = treatment: MLN4924 1 uM, 8 h, c terminus: a fixed tail appended
[3] = treatment: DMSO, c terminus: native
[4] = treatment: MLN4924 1 uM, 8 h, c terminus: native
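Note: 24-mer peptide tiles fused after GFP, lentivirally expressed, FACS-sorted into six equal bins by GFP/DsRed ratio, decoded by Illumina sequencing, PSI is the read-weighted mean bin number.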

Sequence | protein stability index [1] | protein stability index [2] | protein stability index [3] | protein stability index [4]
RRKREVLVEDMVSQEEAQGLPSSE [ZNF24] | 5.31 ± 0.2 | 5.43 ± 0.15 | – | –
RRLFGPVDSEQLRRDCDALMAGCI [CDKN1A] | 2.75 ± 0.26 | 2.74 ± 0.34 | – | –
RRVHLTEDQWGKGTLTPRMTTDFD [TRIM9] | 3.92 ± 0.13 | 4 ± 0.18 | – | –
RSRKVSCPLTRSNGDLSRSLSPSP [FCHO1] | 4.04 ± 0.45 | 4.08 ± 0.15 | – | –
RTANPSKTIDLGAAAHYTGDKASP [CLINT1] | 4.99 ± 0.27 | 4.93 ± 0.083 | – | –
RVDPTRVNEFGMSGEDPTAAAPVA [CLPTM1] | 4.98 ± 0.099 | 5.02 ± 0.2 | – | –
RVDVDTYLTSQLPPLREIILGPSS [NFE2L1] | 2.67 ± 0.46 | 2.67 ± 0.35 | – | –
RYFGARAILGEQRPRQRQRVYPKC [TCF25] | 3.84 ± 0.32 | 3.58 ± 0.21 | – | –
RYQQSKAAALKCQLCEKAPKEATV [TRIM9] | 3.85 ± 0.28 | 4.01 ± 0.14 | – | –
RYTFAPSVSLNKTARPFGAPPPAD [PDLIM7] | 3.34 ± 0.2 | 3.55 ± 0.21 | – | –
SADMDESDEDDEEERRRRVFDVPI [FBXO3] | 5.32 ± 0.18 | 5.35 ± 0.11 | – | –
SADPARGLPRSRDCRVDLGSEVYR [PDLIM4] | 3.74 ± 0.23 | 3.83 ± 0.09 | – | –
SAFPFSDKLGELSDKIGSTIDDTI [CLINT1] | 3.67 ± 0.2 | 3.81 ± 0.39 | – | –
SAKLAPHYFHSISYKIEEISPSTL [KCNK9] | 2.41 ± 0.23 | 2.31 ± 0.34 | – | –
SAPGACEEPTERGNLEVGEPQSEP [FBXO34] | 5.67 ± 0.27 | 5.7 ± 0.17 | – | –
SCSQNLLITQQIIPVLYCMVFIAG [P2RY14] | 3.03 ± 0.58 | 2.87 ± 0.73 | – | –
SDGFRDCKKGDPKHGKRKRGRPRK [ELF3] | 5.18 ± 0.35 | 5.22 ± 0.15 | – | –
SDQDPRVRTAAIKAMLQLHERGLK [INTS4] | 3.67 ± 0.31 | 3.79 ± 0.39 | – | –
SEDRTIRVWLKRDSGQYWPSIYHT [WDFY1] | 2.15 ± 0.19 | 2.25 ± 0.31 | – | –
SEGKVLTLAALLLNRSESDIRYLL [FEM1B] | 2.43 ± 0.56 | 2.38 ± 0.24 | – | –
SEIKNYNFQQPGFTSGTGHFTAMV [GLIPR2] | 2.41 ± 0.58 | 2.77 ± 0.16 | – | –
SERPLEDLRLRLDHLGWVARGTGS [RTN2] | 2.63 ± 0.53 | 3.2 ± 0.58 | – | –
SESEQEFLYKTAGGLIYWIGLTKA [CD207] | – | 2.11 ± 0.59 | – | –

Sequence | protein stability index [1] | protein stability index [2] | protein stability index [3] | protein stability index [4]
SESGKLVTKMFQKIQDLIDDKDAL [TRIP13] | 3.43 ± 0.17 | 3.42 ± 0.2 | – | –
SFEAPLTPLIQQRARDSPEPGAGL [PSD2] | 4.66 ± 0.22 | 4.68 ± 0.2 | – | –
SFEDDCSQSLCLNKPTMSFKDYIQ [ETS2] | 3.52 ± 0.15 | 3.67 ± 0.28 | – | –
SFIKNSDSFDKFEFCEPAFVVGNC [PCMTD1] | 2.37 ± 0.11 | 2.62 ± 0.22 | – | –
SFQMSEGSEAAVIPLDLGCTQVTQ [FAM189A2] | 4.56 ± 0.17 | 4.43 ± 0.31 | – | –
SFSLVKLVLRRQLKNKCCPPPCKF [C22orf31] | 2.29 ± 0.47 | 2.35 ± 0.41 | – | –
SFVTGSHVGELIIWDALDWTMQAY [WDR41] | 2.9 ± 0.72 | 3.21 ± 1.5 | – | –
SGAGHGSGSGSGPGCGSVPGSGSG [SPAG8] | 5.03 ± 0.17 | 4.96 ± 0.4 | – | –
SGGSSSSFRAGSKGLSGGFGSRSL [KRT71] | 3.32 ± 0.18 | 3.14 ± 0.13 | – | –
SGKRLSGVSSVDSAFSSRGSLSLS [RIPK4] | 3.47 ± 0.62 | 3.57 ± 0.41 | – | –
SGLFNHRGIHNIQKRYHCKECGKV [ZSCAN9] | 3.08 ± 0.41 | 3.13 ± 0.35 | – | –
SGPRQLLTLYNPTGTALRFRVLCT [MOSPD3] | 2.15 ± 0.48 | 2.16 ± 0.27 | – | –
SGSGNGSSTLNPSTSSSTQGDPAF [NOL4L] | 5.04 ± 0.34 | 5.07 ± 0.17 | – | –
SHPACPLEFAYYFRPGHLLANACL [ZSWIM9] | 2.81 ± 0.54 | 2.52 ± 0.56 | – | –
SIEGTIPFSKPVKVYIMPKPARR [INTS4] | – | – | 2.42 ± 0.33 | 2.56 ± 0.45
SIYDNVPGSILYSSSGDLADLENE [DLC1] | 4.843 ± 0.034 | 4.75 ± 0.12 | – | –
SKARTKSLLGDDVFSTMAGLEEAD [FBF1] | 4.87 ± 0.29 | 5.05 ± 0.2 | – | –
SLENTLTESEARYSSQLSQVQSLI [KRT33B] | 3.05 ± 0.23 | 3.11 ± 0.46 | – | –
SLGPALSTGPRGLCAMPQTGDAF [VENTX] | – | – | 2.44 ± 0.12 | 2.3 ± 0.11
SLHHTSECTQMDHLGCMHYTVRAP [ALDH8A1] | 3.04 ± 0.13 | 3.06 ± 0.25 | – | –
SLLLTPQENESLFTFLGKKCVTMS [WASL] | 2.45 ± 0.15 | 2.5 ± 0.4 | – | –
SLLTNWPSVPPTIKEEENSEEELA [MYBL2] | 5.41 ± 0.26 | 5.28 ± 0.28 | – | –
SLRIALSEHLKQRREVAKTVFCLV [EDNRA] | 1.93 ± 0.34 | 2.26 ± 0.3 | – | –

Sequence | protein stability index [1] | protein stability index [2] | protein stability index [3] | protein stability index [4]
SLSNGQGSRVLHVVQTLYPFSSVT [NCK2] | 2.01 ± 0.18 | 2.14 ± 0.21 | – | –
SLTAAETLALQGTQGQEKMMMMGP [ZNF232] | 4.01 ± 0.18 | 4.14 ± 0.2 | – | –
SNKSLVEALGLEAEGAVPETQTLT [RHOBTB1] | 5.09 ± 0.26 | 5.16 ± 0.36 | – | –
SNLLSRFTRNEFNLESKSTIGVEF [RAB11A] | 2.36 ± 0.31 | 2.72 ± 0.49 | – | –
SPLAADPACLGQPHTPGKPTSSCT [FOXJ1] | 4.95 ± 0.17 | 4.89 ± 0.2 | – | –
SPYFHDQVLLKGMTSISLPSVMDP [ZBTB22] | 3.03 ± 0.3 | 3.12 ± 0.28 | – | –
SQYFRSLFSSHPPLGGGVGGQDGL [KLHL14] | 2.72 ± 0.17 | 2.87 ± 0.21 | – | –
SRDGATGHVLLTDSEFSMQEPMVP [PPFIA4] | 4.6 ± 0.27 | 4.6 ± 0.29 | – | –
SREITTLANNQCMATESVDHELGR [EHMT1] | 4.8 ± 0.28 | 4.84 ± 0.26 | – | –
SRPVKGQVVTVHLQTSLENGTRVQ [FKBP8] | 3.38 ± 0.45 | 3.51 ± 0.26 | – | –
SRQIPAPQGAVLVQREKDLPNYNW [KISS1] | 3.78 ± 0.29 | 3.79 ± 0.14 | – | –
SRSESPPPLSDPKQAKVVARRESG [BRD3] | 5.5 ± 0.21 | 5.24 ± 0.17 | – | –
SRSRSRSRSRSRSRSNSRSRSYSP [SRSF1] | 5.52 ± 0.33 | 5.56 ± 0.28 | – | –
SRWVRDPRYREDPCKQCKKKYVKG [FBXO34] | 3.59 ± 0.44 | 3.92 ± 0.14 | – | –
SSASYEKENEMMKSHVMDQAINNA [IKZF1] | 4.78 ± 0.19 | 4.74 ± 0.28 | – | –
SSCFFIESCGAQVPVEGSRRETSI | 3 ± 0.38 | 2.79 ± 0.033 | – | –
SSDSANTTIEDEDAKARKQEIIKT [CAMK2B] | 5.44 ± 0.21 | 5.42 ± 0.082 | – | –
SSGRELGRPKELQPKKLHLCPLCG [ZNF263] | 3.53 ± 0.2 | 3.99 ± 0.58 | – | –
SSGRRVSLHCLLDQFDKDLPVYLK [DENND6A] | 2.35 ± 0.45 | 2.4 ± 0.45 | – | –
SSLSFFLKKMGKRLDYLNLKGARL [FBXO39] | 2.96 ± 0.66 | 2.63 ± 0.43 | – | –
SSNRIRHLRTHTGERPYKCSECGE [ZNF263] | 4.28 ± 0.089 | 4.44 ± 0.24 | – | –
SSSHQKCPQLGGPEASGGLVQWI [PLEKHN1] | – | – | 3.17 ± 0.38 | 3.47 ± 0.26
SSSSKLSRSPLKIVKKPKSMQCKV [EPB41L3] | 3.54 ± 0.11 | 3.41 ± 0.52 | – | –

Sequence | protein stability index [1] | protein stability index [2] | protein stability index [3] | protein stability index [4]
SSSTMSKSEYMEIEEDMNNSIAHY [KCNA1] | 4.56 ± 0.33 | 4.5 ± 0.11 | – | –
STDNIVSQWDVLSGDCDQRFRFPS [RBBP5] | 3.64 ± 0.1 | 3.67 ± 0.16 | – | –
STGEVYCRVPNSGKDEIEAAVKAA [ALDH8A1] | 4.93 ± 0.4 | 4.94 ± 0.32 | – | –
STICFGQGAARGFKSNKKKTKQC [ZNF511] | – | – | 4.86 ± 0.14 | 4.71 ± 0.32
STLLPLAPSNSTSLNSTFGSTNLT [NFE2L1] | 3.64 ± 0.19 | 3.86 ± 0.16 | – | –
STSRAHKLPSRRQPGLLHLQSCGD [FAM189A2] | 3.67 ± 0.33 | 3.85 ± 0.13 | – | –
STTEGIQLAKELGATYLELHSLDD [RHOBTB3] | 3.77 ± 0.3 | 4.16 ± 0.37 | – | –
STVKNEFSLKTFKRKSEVERAVKR [MATN2] | 4.17 ± 0.14 | 4.39 ± 0.3 | – | –
SVDLIKTYKHINEVYYAKKKRRAQ [DYRK1B] | 2.85 ± 0.23 | 3.13 ± 0.14 | – | –
SVILNHMAREHAFNIGLPDNIVNC [ZNF277] | 1.98 ± 0.2 | 2.22 ± 0.45 | – | –
SVILRRYFLELTQSFIIPLERYVA [DENND6A] | 2.33 ± 0.63 | 2.88 ± 0.75 | – | –
SVVRDLKGYPDGVKSIVVKGYNIW [TLE6] | 2.26 ± 0.26 | 2.23 ± 0.21 | – | –
SWASAQVQILCHTYWEHWTSQGQV [RTP4] | 2.8 ± 0.74 | 2.77 ± 0.75 | – | –
SYSAGDSGDAAAQPAFTGIKGKEG [EPB41L3] | 5.37 ± 0.15 | 5.3 ± 0.25 | – | –
TAFAPKMIVDLLSEKKTISFQGCM [OR4A15] | 2.08 ± 0.13 | 2.26 ± 0.42 | – | –
TAGLKIFEPPAPGEGNSSQNSRNK [TNFSF13B] | 5.2 ± 0.22 | 5.24 ± 0.15 | – | –
TAILIECGADVNVRDSDDNSPLHI [FEM1C] | 3.43 ± 0.34 | 3.5 ± 0.3 | – | –
TASTKNCMVGYDMGATRCDFTLSK [CPXM2] | 2.64 ± 0.4 | 3.03 ± 0.51 | – | –
TCFDQRKRANAAFLIGAYAVIYLK [CDC14A] | 2.05 ± 0.31 | 2.13 ± 0.41 | – | –
TEAANAARHVAPEIRELLTQFET [PWWP2B] | – | – | 3.49 ± 0.21 | 3.88 ± 0.29
